Consider 61 sequences from the supplement of paper PMC7877785.

A short description of this data set: self-splicing fitness, log relative to wild type (ln ratio); higher = more splicing; Tetrahymena group I intron in knt gene, E. coli kanamycin selection, DiMSum; sequences stand for … in CUCUCU…GGAGGGAAAAGUUAUCAGGCAUGCACCUGGUAGCUAGUCUUUAAACCAAUAGAUUGCAUCGGUUUAAAAGGCAAGACCGUCAAAUUGCGGGAAAGGGGUCAACAGCCGUUCAGUACCAAGUCUCAGGGGAAACUUUGAGAUGGCCUUGCAAAGGGUAUGGUAAUAAGCUGACGGACAUGGUCCUAACCACGCAGCCAAGUCCUAAGUCAACAGAUCUUCUGUUGAUAUGGAUGCAGUUCACAGACUAAAUGUCGGUCGGGGAAGAUGUAUUCUUCUCAUAAGAUAUAGUCGGACCUCUCCUUAAUGGGAGCUAGCGGAUGAAGUGAUGCAACACUGGAGCCGCUGGGAACUAAUUUGUAUGCGAAAGUAUAUUGAUUAGUUUUGGAGUACUCGUGGUCG
An outline of the steps: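 Fitness was computed with DiMSum as the error-weighted combination of replicate fold changes, kanamycin versus none, each normalised to wild type. The library randomised all eight intron nucleotides of the P1ex region, with the intron placed in the knt kanamycin-resistance gene on pET-22b(+) in E. coli BL21(DE3). Six replicate transformations were grown overnight at 37°C or 30°C on LB agar with or without 25 μg/mL kanamycin, plus 100 μg/mL carbenicillin, 50 μM IPTG and 0.2% rhamnose. Pooled colonies were amplicon-sequenced on an Illumina HiSeq 2500.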

± gives the uncertainty stated by the source.

On to ACAAAGCAAUAUUACGGGUG, for which the “self-splicing fitness (ln)” value by setting is: (30 °C) -1.21 ± 0.046; (37 °C) -0.593 ± 0.064.

As to AUUAAGCAAUAUUACGUCUG, the “self-splicing fitness (ln)” value was -1.74 ± 0.11 (30 °C) and -0.762 ± 0.12 (37 °C).

Take AAUGAGCAAUAUUACGGGGC: the “self-splicing fitness (ln)” value (30 °C) was -2.82 ± 0.2 and the “self-splicing fitness (ln)” value (37 °C) is -1.93 ± 0.24.

For CUAAAGCAAUAUUACGAUUC, the “self-splicing fitness (ln)” value (30 °C) was -3.33 ± 0.31 and the “self-splicing fitness (ln)” value (37 °C) was -3.73 ± 0.46.

On to GUGUAGCAAUAUUACGUCAG, for which the “self-splicing fitness (ln)” value runs as follows: (30 °C) -3.06 ± 0.26; (37 °C) -2.53 ± 0.29.

Consider CUACAGCAAUAUUACGAAAA, for which the “self-splicing fitness (ln)” value (30 °C) is -2.2 ± 0.21 and the “self-splicing fitness (ln)” value (37 °C) was -1.92 ± 0.21.

As to GAUGAGCAAUAUUACGCAGA, the “self-splicing fitness (ln)” value is, setting by setting: (30 °C) -3.98 ± 0.43; (37 °C) -0.801 ± 0.19.

Turning to AAGCAGCAAUAUUACGCACA, the “self-splicing fitness (ln)” value (30 °C) is -0.331 ± 0.082 and the “self-splicing fitness (ln)” value (37 °C) came out at 0.0315 ± 0.11.

On to UCAGAGCAAUAUUACGAGGA, for which the “self-splicing fitness (ln)” value runs as follows: (30 °C) -2.47 ± 0.15; (37 °C) -1.83 ± 0.16.

Consider AGAGAGCAAUAUUACGAUUC, for which the “self-splicing fitness (ln)” value was -3.41 ± 0.35 (30 °C) and -1.24 ± 0.32 (37 °C).

In the case of GCCCAGCAAUAUUACGUACC, the “self-splicing fitness (ln)” value was -1.05 ± 0.12 (30 °C) and 0.0161 ± 0.17 (37 °C).

With GAUGAGCAAUAUUACGCCGA, under “37 °C”, the “self-splicing fitness (ln)” value was -1.44 ± 0.45.

In the case of GGGAAGCAAUAUUACGGGUU, the “self-splicing fitness (ln)” value runs as follows: (30 °C) -3.15 ± 0.21; (37 °C) -1.36 ± 0.15.

Take CACUAGCAAUAUUACGAGCA: the “self-splicing fitness (ln)” value runs as follows: (30 °C) -3.42 ± 0.18; (37 °C) -0.879 ± 0.11.

With CGAGAGCAAUAUUACGGGGA, the “self-splicing fitness (ln)” value is -3.24 ± 0.47 (30 °C) and -1.74 ± 0.31 (37 °C).

As for UGGAAGCAAUAUUACGCUUU, the “self-splicing fitness (ln)” value was -3.64 ± 0.23 (30 °C) and -2.64 ± 0.28 (37 °C).

For the sequence UAAGAGCAAUAUUACGCAUU, the “self-splicing fitness (ln)” value is -2.87 ± 0.22 (30 °C) and -2.32 ± 0.26 (37 °C).

On to UAUCAGCAAUAUUACGGUGG, for which the “self-splicing fitness (ln)” value is -1.2 ± 0.077 (30 °C) and -0.377 ± 0.088 (37 °C).

CGAGAGCAAUAUUACGGUAU: the “self-splicing fitness (ln)” value was -3.41 ± 0.28 (30 °C) and -2.88 ± 0.29 (37 °C).

For the sequence GCUUAGCAAUAUUACGCUCA, the “self-splicing fitness (ln)” value is, setting by setting: (30 °C) -1.34 ± 0.23; (37 °C) -0.203 ± 0.22.

Consider UAUAAGCAAUAUUACGCUAC, for which the “self-splicing fitness (ln)” value was -3.61 ± 0.21 (30 °C) and -1.32 ± 0.17 (37 °C).

Regarding CCCUAGCAAUAUUACGCGGA, the “self-splicing fitness (ln)” value reads like this: (30 °C) -1.29 ± 0.12; (37 °C) -0.827 ± 0.1.

Consider GCCGAGCAAUAUUACGCGUA, for which the “self-splicing fitness (ln)” value by setting is: (30 °C) -0.983 ± 0.069; (37 °C) -0.591 ± 0.066.

On to UUUUAGCAAUAUUACGGUGG, for which the “self-splicing fitness (ln)” value is -1.24 ± 0.084 (30 °C) and -1.16 ± 0.13 (37 °C).

For GCUGAGCAAUAUUACGAACC, the “self-splicing fitness (ln)” value is, setting by setting: (30 °C) -1.08 ± 0.14; (37 °C) -0.236 ± 0.18.

Regarding CUCGAGCAAUAUUACGCCCG, the “self-splicing fitness (ln)” value (37 °C) is -2.74 ± 0.43.

As to UAAGAGCAAUAUUACGGAUG, the “self-splicing fitness (ln)” value was -2.57 ± 0.35 (30 °C) and -2.59 ± 0.49 (37 °C).

On to GAUGAGCAAUAUUACGGUCA, for which the “self-splicing fitness (ln)” value reads like this: (30 °C) -3.49 ± 0.47; (37 °C) -0.516 ± 0.19.

On to UUCGAGCAAUAUUACGGGUU, for which the “self-splicing fitness (ln)” value runs as follows: (30 °C) -3.21 ± 0.22; (37 °C) -2.78 ± 0.35.

With GCGUAGCAAUAUUACGCCAA, the “self-splicing fitness (ln)” value (37 °C) was -2.7 ± 0.48.

For GUCAAGCAAUAUUACGGCAC, the “self-splicing fitness (ln)” value is, setting by setting: (30 °C) -1.35 ± 0.16; (37 °C) 0.15 ± 0.22.

In the case of AACGAGCAAUAUUACGGUUU, the “self-splicing fitness (ln)” value is, setting by setting: (30 °C) -2.07 ± 0.079; (37 °C) -0.83 ± 0.089.

On to CCCCAGCAAUAUUACGCUAA, for which the “self-splicing fitness (ln)” value (30 °C) is -3.55 ± 0.18 and the “self-splicing fitness (ln)” value (37 °C) is -3.2 ± 0.21.

As to UGUAAGCAAUAUUACGACUU, the “self-splicing fitness (ln)” value was -1.06 ± 0.09 (30 °C) and 0.0267 ± 0.14 (37 °C).

As for GUAGAGCAAUAUUACGCCCA, the “self-splicing fitness (ln)” value is, setting by setting: (30 °C) -1.56 ± 0.2; (37 °C) -0.471 ± 0.25.

Turning to CGCAAGCAAUAUUACGCCCU, the “self-splicing fitness (ln)” value by setting is: (30 °C) -0.736 ± 0.085; (37 °C) 0.327 ± 0.12.

Consider CCCUAGCAAUAUUACGGGUA, for which the “self-splicing fitness (ln)” value was -2.41 ± 0.14 (30 °C) and -3.01 ± 0.19 (37 °C).

As for UUAUAGCAAUAUUACGAUGC, the “self-splicing fitness (ln)” value (30 °C) is -2.99 ± 0.34 and the “self-splicing fitness (ln)” value (37 °C) is -1.93 ± 0.32.

Turning to CCUGAGCAAUAUUACGGCUG, the “self-splicing fitness (ln)” value is, setting by setting: (30 °C) -4.49 ± 0.31; (37 °C) -1.76 ± 0.2.

As to UGGAAGCAAUAUUACGUCCG, the “self-splicing fitness (ln)” value (30 °C) is -2.72 ± 0.21 and the “self-splicing fitness (ln)” value (37 °C) was -2.41 ± 0.22.

For the sequence UCUAAGCAAUAUUACGAGUA, the “self-splicing fitness (ln)” value runs as follows: (30 °C) -2.23 ± 0.15; (37 °C) -1.02 ± 0.14.

Take UACUAGCAAUAUUACGUCUC: the “self-splicing fitness (ln)” value reads like this: (30 °C) -3.59 ± 0.32; (37 °C) -2.93 ± 0.31.

For the sequence GGGCAGCAAUAUUACGAGAA, the “self-splicing fitness (ln)” value was -3.05 ± 0.47 (30 °C) and -1.87 ± 0.3 (37 °C).

On to ACAUAGCAAUAUUACGCUGU, for which the “self-splicing fitness (ln)” value runs as follows: (30 °C) -3.64 ± 0.18; (37 °C) -2.69 ± 0.22.

As to AGGCAGCAAUAUUACGGGAA, the “self-splicing fitness (ln)” value runs as follows: (30 °C) -3.59 ± 0.23; (37 °C) -2.42 ± 0.18.

In the case of AAUGAGCAAUAUUACGAGCA, the “self-splicing fitness (ln)” value by setting is: (30 °C) -3.45 ± 0.32; (37 °C) -2.35 ± 0.29.

For the sequence CCCAAGCAAUAUUACGGAUA, the “self-splicing fitness (ln)” value (30 °C) is -2.84 ± 0.22 and the “self-splicing fitness (ln)” value (37 °C) is -2.17 ± 0.21.

Turning to UCCGAGCAAUAUUACGGUGU, the “self-splicing fitness (ln)” value was -1.74 ± 0.1 (30 °C) and -2.28 ± 0.17 (37 °C).

For the sequence UUCAAGCAAUAUUACGUUAU, the “self-splicing fitness (ln)” value reads like this: (30 °C) -4.39 ± 0.21; (37 °C) -2.3 ± 0.15.

Turning to ACAUAGCAAUAUUACGCGUA, the “self-splicing fitness (ln)” value is, setting by setting: (30 °C) -2.19 ± 0.091; (37 °C) -0.613 ± 0.086.

For the sequence AAGCAGCAAUAUUACGAAGA, the “self-splicing fitness (ln)” value runs as follows: (30 °C) -3.03 ± 0.19; (37 °C) -1.44 ± 0.097.

Take GCCGAGCAAUAUUACGGUGG: the “self-splicing fitness (ln)” value was -3.52 ± 0.16 (30 °C) and -3.27 ± 0.23 (37 °C).

For GAAAAGCAAUAUUACGUGUU, the “self-splicing fitness (ln)” value was -2.35 ± 0.083 (30 °C) and -1.18 ± 0.088 (37 °C).

On to GCAGAGCAAUAUUACGAGGU, for which the “self-splicing fitness (ln)” value (37 °C) is -2.24 ± 0.31.

CGGGAGCAAUAUUACGGUAG: the “self-splicing fitness (ln)” value reads like this: (30 °C) -3.73 ± 0.29; (37 °C) -2 ± 0.27.

Turning to UUUUAGCAAUAUUACGCAUC, the “self-splicing fitness (ln)” value is -3.19 ± 0.31 (30 °C) and -2.15 ± 0.23 (37 °C).

AAUCAGCAAUAUUACGACCU: the “self-splicing fitness (ln)” value (30 °C) amounted to 0.207 ± 0.09 and the “self-splicing fitness (ln)” value (37 °C) is 0.538 ± 0.096.

Turning to CAUUAGCAAUAUUACGUAUC, the “self-splicing fitness (ln)” value (30 °C) was -3.14 ± 0.31 and the “self-splicing fitness (ln)” value (37 °C) was -2.26 ± 0.28.

As for UCUGAGCAAUAUUACGAUCA, the “self-splicing fitness (ln)” value reads like this: (30 °C) -3.84 ± 0.4; (37 °C) -2.38 ± 0.36.

Take UUAAAGCAAUAUUACGACGG: the “self-splicing fitness (ln)” value by setting is: (30 °C) -0.186 ± 0.091; (37 °C) 0.75 ± 0.15.

CCUUAGCAAUAUUACGAGCU: the “self-splicing fitness (ln)” value runs as follows: (30 °C) -4 ± 0.33; (37 °C) -2.74 ± 0.29.
